Test results: PMC10279526, “Structural basis of centromeric cohesion protection” (Nature Structural & Molecular Biology, 2023)
Values belong to the binder of their own block, whether it stands above or below them. Non-standard residues stand in square brackets, D forms with d. No end group written: not given here. pT = C[C@@H](OP(=O)(O)O)[C@H](N)C(=O)O

Molecular target: T1, SA2–SCC1 complex (SA2 amino acid residues 80–1060 with SCC1 amino acid residues 281–420) (UniProt Q8N3U4 80-1060; O60216 281-420)
T1 construct: SA2 (STAG2), cohesin subunit, residues 80-1060; SCC1 (RAD21, Mcd1), cohesin subunit, residues 281-420; also called cohesin subcomplex SA2–SCC1; CES
T1 sequence (looked up) 1: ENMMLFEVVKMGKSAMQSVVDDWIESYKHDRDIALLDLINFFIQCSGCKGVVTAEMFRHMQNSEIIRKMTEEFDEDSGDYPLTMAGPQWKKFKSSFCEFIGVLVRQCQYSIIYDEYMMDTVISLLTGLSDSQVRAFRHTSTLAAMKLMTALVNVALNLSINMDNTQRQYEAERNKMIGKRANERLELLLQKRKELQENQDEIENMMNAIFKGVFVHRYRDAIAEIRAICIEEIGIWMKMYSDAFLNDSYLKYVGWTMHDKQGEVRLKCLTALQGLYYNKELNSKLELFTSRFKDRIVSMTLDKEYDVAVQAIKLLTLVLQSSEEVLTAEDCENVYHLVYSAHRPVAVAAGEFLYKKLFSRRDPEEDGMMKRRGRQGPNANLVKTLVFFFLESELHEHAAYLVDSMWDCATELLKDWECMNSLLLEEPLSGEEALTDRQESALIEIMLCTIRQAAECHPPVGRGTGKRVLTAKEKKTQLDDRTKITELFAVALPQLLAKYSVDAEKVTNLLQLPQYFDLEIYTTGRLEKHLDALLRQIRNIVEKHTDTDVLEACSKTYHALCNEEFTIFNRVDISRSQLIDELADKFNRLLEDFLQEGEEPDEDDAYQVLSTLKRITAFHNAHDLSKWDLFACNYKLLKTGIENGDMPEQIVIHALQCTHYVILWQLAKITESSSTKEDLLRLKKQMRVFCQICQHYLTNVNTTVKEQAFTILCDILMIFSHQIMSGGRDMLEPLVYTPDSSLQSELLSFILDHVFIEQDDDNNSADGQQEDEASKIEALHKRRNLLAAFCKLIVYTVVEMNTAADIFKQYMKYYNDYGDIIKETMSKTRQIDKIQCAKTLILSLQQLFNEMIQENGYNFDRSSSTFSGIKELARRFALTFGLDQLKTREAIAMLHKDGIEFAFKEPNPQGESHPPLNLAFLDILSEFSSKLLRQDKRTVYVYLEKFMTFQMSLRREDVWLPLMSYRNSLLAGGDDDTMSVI
T1 sequence (looked up) 2: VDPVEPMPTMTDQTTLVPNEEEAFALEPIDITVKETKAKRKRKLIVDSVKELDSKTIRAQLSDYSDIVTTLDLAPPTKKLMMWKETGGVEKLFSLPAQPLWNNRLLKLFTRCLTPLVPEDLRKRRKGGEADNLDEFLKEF
Assay: ITC; performed as described previously (ref. 21); data analysed with Origin 7.0; SGO1 peptides with SA2–SCC1
Settings: both partners purified

Kd: 2.3 ± 0.4 µM
B1: SGO1 peptide spanning amino acids 331–349 containing phosphorylated pT346 (SNDAYNFNLEEGVHLpTPFR) (peptide)
peptide: SNDAYNFNLEEGVHL[pT]PFR
notes: Shugoshin 1 (SGO1), human, residues 331-349, T346 phosphorylated; also called T346-phosphorylated SGO1 fragment; SGO1 331–349 pT346

Kd: 13.5 ± 1.4 µM
B2: SGO1 peptide spanning amino acids 331–341 (SNDAYNFNLEE) (peptide)
peptide: SNDAYNFNLEE
notes: Shugoshin 1 (SGO1), human, residues 331-341 with the YxF motif; also called SGO1 331–341; nonphosphorylated SGO1 peptide
